Test system: steviol glycoside
Test: steviol glycoside bioconversion with overexpressed genes complemented on plasmid
Assay type: cell-based, E. coli
Details: chassis strain with UGT SEQ ID NOS: 14 and 24; stevia leaf extract and glucose fed; 37° C., 48 hr; FIG. 2
Experimental: Other bacterial genes were overexpressed, and bioconversion tested as compared to the chassis strain expressing UGT enzymes of SEQ ID NOS: 14 and 24. […] Fold improvement is with respect to total steviol glycoside conversion. Stevia leaf extract and glucose were fed to the bioconversion strains. Bioconversion took place at 37° C. for 48 hr. Data were quantified by reverse phase LC DAD to quantify conversion of steviol glycosides.

| Molecule | improvement of total steviol glycoside conversion by gene complementation |
| --- | --- |
| adk: E. coli adk (adenylate kinase), complemented on plasmid | improved overall glycosylation |
| pgm: E. coli pgm (phosphoglucomutase), complemented on plasmid (protein, listed as Escherichia coli) MAIHNRAGQPAQQSDLINVAQLTAQYYVLKPEAGNAEHAVKFGTSGHRGSAARHSFNEPHILAIAQAIAEERAKNGITGPCYVGKDTHALSEPAFISVLEVLAANGVDVIVQENNGFTPTPAVSNAILVHNKKGGPLADGIVITPSHNPPEDGGIKYNPPNGGPADTNVTKVVEDRANALLADGLKGVKRISLDEAMASGHVKEQDLVQPFVEGLADIVDMAAIQKAGLTLGVDPLGGSGIEYWKRIGEYYNLNLTIVNDQVDQTFRFMHLDKDGAIRMDCSSECAMAGLLALRDKFDLAFANDPDYDRHGIVTPAGLMNPNHYLAVAINYLFQHRPQWGKDVAVGKTLVSSAMIDRVVNDLGRKLVEVPVGFKWFVDGLFDGSFGFGGEESAGASFLRFDGTPWSTDKDGIIMCLLAAEITAVTGKNPQEHYNELAKRFGAPSYNRLQAAATSAQKAALSKLSPEMVSASTLAGDPITARLTAAPGNGASIGGLKVMTDNGWFAARPSGTEDAYKIYCESFLGEEHRKQIEKEAVEIVSEVLKNA | improved overall glycosylation |
| pgm-galU: pgm and galU (SEQ ID NOS: 92 and 93) complemented together on plasmid (protein, listed as Escherichia coli) chain 1: MAIHNRAGQPAQQSDLINVAQLTAQYYVLKPEAGNAEHAVKFGTSGHRGSAARHSFNEPHILAIAQAIAEERAKNGITGPCYVGKDTHALSEPAFISVLEVLAANGVDVIVQENNGFTPTPAVSNAILVHNKKGGPLADGIVITPSHNPPEDGGIKYNPPNGGPADTNVTKVVEDRANALLADGLKGVKRISLDEAMASGHVKEQDLVQPFVEGLADIVDMAAIQKAGLTLGVDPLGGSGIEYWKRIGEYYNLNLTIVNDQVDQTFRFMHLDKDGAIRMDCSSECAMAGLLALRDKFDLAFANDPDYDRHGIVTPAGLMNPNHYLAVAINYLFQHRPQWGKDVAVGKTLVSSAMIDRVVNDLGRKLVEVPVGFKWFVDGLFDGSFGFGGEESAGASFLRFDGTPWSTDKDGIIMCLLAAEITAVTGKNPQEHYNELAKRFGAPSYNRLQAAATSAQKAALSKLSPEMVSASTLAGDPITARLTAAPGNGASIGGLKVMTDNGWFAARPSGTEDAYKIYCESFLGEEHRKQIEKEAVEIVSEVLKNA chain 2: MAAINTKVKKAVIPVAGLGTRMLPATKAIPKEMLPLVDKPLIQYVVNECIAAGITEIVLVTHSSKNSIENHFDTSFELEAMLEKRVKRQLLDEVQSICPPHVTIMQVRQGLAKGLGHAVLCAHPVVGDEPVAVILPDVILDEYESDLSQDNLAEMIRRFDETGHSQIMVEPVADVTAYGVVDCKGVELAPGESVPMVGVVEKPKADVAPSNLAIVGRYVLSADIWPLLAKTPPGAGDEIQLTDAIDMLIEKETVEAYHMKGKSHDCGNKLGYMQAFVEYGIRHNTLGTEFKAWLEEEMGIKK | improved overall glycosylation |
| ycjU: E. coli ycjU (β-phosphoglucomutase), complemented on plasmid (protein, listed as Escherichia coli) MKLQGVIFDLDGVITDTAHLHFQAWQQIAAEIGISIDAQFNESLKGISRDESLRRILQHGGKEGDFNSQERAQLAYRKNLLYVHSLRELTVNAVLPGIRSLLADLRAQQISVGLASVSLNAPTILAALELREFFTFCADASQLKNSKPDPEIFLAACAGLGVPPQACIGIEDAQAGIDAINASGMRSVGIGAGLTGAQLLLPSTESLTWPRLSAFWQNV | improved overall glycosylation |
| ugpA: Bifidobacterium bifidum ugpA, complemented on plasmid (protein, listed as Bifidobacterium bifidum) MAFAEDLKRTEKMTVDDVFEQSAQKMREQGMSEIAISQFRHAYHVWASEKESAWIREDTVEPLHGVRSFHDVYKTIDHDKAVHAFAKTAFLKLNGGLGTSMGLQCAKSLLPVRRHKARQMRFLDIILGQVLTARTRLNVPLPVTFMNSFRTSDDTMKALRHQRKFKQTDIPLEIIQHQEPKIDAATGAPASWPANPDLEWCPPGHGDLFSTLRESGLLDTLLEHGFEYLFISNSDNLGARPSRTLAQYFEDTGAPFMVEVANRTYADRKGGHIVRDTATGRLILREMSQVHPDDKDAAQDIAKHPYFNTNNIWVRIDVLRDMLAEHDGVLPLPVIINNKTVDPIDPQSPAVVQLETAMGAAIGLFEGAICVQVDRMRFLPVKTTNDLFIMRSDRFHLTDSYEMEDGNYIFPNVDLDPRYYKNIEDFNERFPYNVPSLAAANSVSIKGDWTFGRDVIMFADARLEDRNEPSYVPNGEYVGPMGIEPGDWV | improved overall glycosylation |
| cmk: E. coli cmk (cytidylate kinase), complemented on plasmid (protein, listed as Escherichia coli) MTAIAPVITIDGPSGAGKGTLCKAMAEALQWHLLDSGAIYRVLALAALHHHVDVASEDALVPLASHLDVRFVSTNGNLEVILEGEDVSGEIRTQEVANAASQVAAFPRVREALLRRQRAFRELPGLIADGRDMGTVVFPDAPVKIFLDASSEERAHRRMLQLQEKGFSVNFERLLAEIKERDDRDRNRAVAPLVPAADALVLDSTTLSIEQVIEKALQYARQKLALA | improved overall glycosylation |
| ndk: E. coli ndk (nucleoside diphosphate kinase), complemented on plasmid (protein, listed as Escherichia coli) MAIERTFSIIKPNAVAKNVIGNIFARFEAAGFKIVGTKMLHLTVEQARGFYAEHDGKPFFDGLVEFMTSGPIVVSVLEGENAVQRHRDLLGATNPANALAGTLRADYADSLTENGTHGSDSVESAAREIAYFFGEGEVCPRTR | improved overall glycosylation |
| galU: E. coli galU (UTP-glucose-1-phosphate uridylyltransferase), complemented on plasmid (protein, listed as Escherichia coli) MAAINTKVKKAVIPVAGLGTRMLPATKAIPKEMLPLVDKPLIQYVVNECIAAGITEIVLVTHSSKNSIENHFDTSFELEAMLEKRVKRQLLDEVQSICPPHVTIMQVRQGLAKGLGHAVLCAHPVVGDEPVAVILPDVILDEYESDLSQDNLAEMIRRFDETGHSQIMVEPVADVTAYGVVDCKGVELAPGESVPMVGVVEKPKADVAPSNLAIVGRYVLSADIWPLLAKTPPGAGDEIQLTDAIDMLIEKETVEAYHMKGKSHDCGNKLGYMQAFVEYGIRHNTLGTEFKAWLEEEMGIKK | improved overall glycosylation |

Test system: mogrol
Test: primary glycosylation at C3 and C24 hydroxyls of mogrol by cells expressing UGT enzymes
Assay type: cell-based, E. coli
Details: mogrol fed; 37° C., 48 hrs; LCMS/MS
Experimental: Specifically, mogrol was fed to cells expressing various UGT enzymes. Reactions were incubated at 37° C. for 48 hrs. Products were quantified by LCMS/MS with authentic standards of each compound.

| Molecule | C3 O-Glucosylation | C24 O-Glucosylation |
| --- | --- | --- |
| SEQ ID NO: 80: SrUGT73E1, with optional His tag (Stevia rebaudiana) (protein, listed as Stevia rebaudiana, optional His tag) MAHHHHHHVGTGSNDDDDKSPDPNWASTSELVFIPSPGAGHLPPTVELAKLLLHRDQRLSVTIIVMNLWLGPKHNTEARPCVPSLRFVDIPCDESTMALISPNTFISAFVEHHKPRVRDIVRGIIESDSVRLAGFVLDMFCMPMSDVANEFGVPSYNYFTSGAATLGLMFHLQWKRDHEGYDATELKNSDTELSVPSYVNPVPAKVLPEVVLDKEGGSKMFLDLAERIRESKGIIVNSCQAIERHALEYLSSNNNGIPPVFPVGPILNLENKKDDAKTDEIMRWLNEQPESSVVFLCFGSMGSFNEKQVKEIAVAIERSGHRFLWSLRRPTPKEKIEFPKEYENLEEVLPEGFLKRTSSIGKVIGWAPQMAVLSHPSVGGFVSHCGWNSTLESMWCGVPMAAWPLYAEQTLNAFLLVVELGLAAEIRMDYRTDTKAGYDGGMEVTVEEIEDGIRKLMSDGEIRNKVKDVKEKSRAAVVEGGSSYASIGKFIEHVSNVTI | No | Yes |
| SEQ ID NO: 46: CmaUGT1 (Cucurbita maxima) (protein, listed as Cucurbita maxima) MELSHTHHVLLFPFPAKGHIKPFFSLAQLLCNAGLRVTFLNTDHHHRRIHDLNRLAAQLPTLHFDSVSDGLPPDEPRNVFDGKLYESIRQVTSSLFRELLVSYNNGTSSGRPPITCVITDVMFRFPIDIAEELGIPVFTFSTFSARFLFLIFWIPKLLEDGQLRYPEQELHGVPGAEGLIRWKDLPGFWSVEDVADWDPMNFVNQTLATSRSSGLILNTFDELEAPFLTSLSKIYKKIYSLGPINSLLKNFQSQPQYNLWKEDHSCMAWLDSQPRKSVVFVSFGSVVKLTSRQLMEFWNGLVNSGMPFLLVLRSDVIEAGEEVVREIMERKAEGRWVIVSWAPQEEVLAHDAVGGFLTHSGWNSTLESLAAGVPMISWPQIGDQTSNSTWISKVWRIGLQLEDGFDSSTIETMVRSIMDQTMEKTVAELAERAKNRASKNGTSYRNFQTLIQDITNIIETHI | Yes | No |

Test system: steviol glycoside
Test: steviol glycoside bioconversion with complemented sucrose synthases in chassis strain
Assay type: cell-based, E. coli
Details: chassis strain with UGT SEQ ID NOS: 15 and 25, stevia leaf extract, glucose fed, 37° C., 48 hr, FIG. 3
Source text: Strains were created that expressed candidate sucrose synthase enzymes, which may improve UDP-glucose availability when fed sucrose. Expression of a sucrose synthase enables splitting of sucrose into fructose and glucose. Glucose can be funneled towards UDP-glucose biosynthesis. […] Genes were complemented on plasmid. Fold improvement is with respect to total steviol glycoside conversion. Stevia leaf extract, sucrose, and glucose were fed to the bioconversion strains. Bioconversion took place at 37° C. for 48 hr. Data were quantified by reverse phase LC DAD to quantify conversion of steviol glycosides.

| Molecule | improvement of total steviol glycoside conversion by sucrose synthase |
| --- | --- |
| SEQ ID NO: 11: sucrose synthase, Glycine Max (GmSS_S11E) | dramatic improvements in glycosylation |
| SEQ ID NO: 6: sucrose synthase, Arabidopsis thaliana (AtSus1) | dramatic improvements in glycosylation |
| SEQ ID NO: 7: sucrose synthase, Arabidopsis thaliana (AtSus3) | dramatic improvements in glycosylation |
| SEQ ID NO: 9: sucrose synthase, Vigna radiate (VrSS1_S11E) | dramatic improvements in glycosylation |
| SEQ ID NO: 3: sucrose synthase, Solanum tuberosum (StSus2_S11E) | dramatic improvements in glycosylation |
| SEQ ID NO: 2: sucrose synthase, Solanum tuberosum (StSus2) | dramatic improvements in glycosylation |

From US20260242839A1, “GLYCOSIDE PRODUCT BIOSYNTHESIS AND RECOVERY” (Manus Bio Inc., priority 2023, published 2026)
